Data on eleven molecules can be found in patent publication US20250353912A1 (published 2025).

Test [1] deals with HLA-A*01:01 in complex with the BTK peptide … conjugated with Ibrutinib (human;, ibrutinib covalently bound to Cys). Put plainly: multiplex bead-binding assay.
A further test addresses RAS-AMG510. Put plainly: cell binding, flow cytometry (peptide-pulsed Raji cells); apparent KD.
The target in test [2] is T1, KRAS(G12C) residues 4-18 peptide conjugated to AMG-510.
T1 peptide: YKLVVVGAC(AMG‑510)GVGKSA[dPEG4]K(long chain biotin)-NH2
Description: bead binding assay; apparent KD.

The next test addresses CD3 on Jurkat cells (UniProt P07766 23-207). Description: cell binding, flow cytometry. (In general: In flow cytometry, cells or beads pass a laser one at a time.)

Substitutions are numbered along the chain they refer to. Where no end group is shown, it is not given here. [ ]: non-standard residue; d: D form.

B1: IBA1-21 (antibody, V domains shown)
VH: EVQLVESGGGLVQPGGSLRLSCAASGFTISSSSIHWVRQAPGKGLEWVASISSYYGYTSYADSVKGRFTISADTSKNTAYLQMNSLRAEDTAVYYCARYYSYSSGYGYYDYFDWGAMDYWGQGTLVTVSS
VL: DIQMTQSPSSLSASVGDRVTITCRASQSVSSAVAWYQQKPGKAPKLLIYSASSLYSGVPSRFSGSRSGTDFTLTISSLQPEDFATYYCQQMQYSGWLITFGQGTKVEIKR
In the case of B1, the Kd in test [1] was 0.04 nM.

B2: IBA1-4 (antibody, V domains shown)
VH: EVQLVESGGGLVQPGGSLRLSCAASGFTVSSSSIHWVRQAPGKGLEWVASIYSYSGSTYYADSVKGRFTISADTSKNTAYLQMNSLRAEDTAVYYCARQYSSSYYVWPGMDYWGQGTLVTVSS
VL: B1 VL with M91Y, Q92H, S94W, G95A, W96S
For B2, the Kd in test [1] worked out at 0.65 nM.

B3: IBA1-7 (antibody, V domains shown)
VH: EVQLVESGGGLVQPGGSLRLSCAASGFTLSSSSIHWVRQAPGKGLEWVASISSYYGSTSYADSVKGRFTISADTSKNTAYLQMNSLRAEDTAVYYCARMHYSWQEYYSYDWGMDYWGQGTLVTVSS
VL: B1 VL with M91S, Q92Y, Y93W, S94W, G95K, W96S, I98V
The molecule B3 yielded a Kd in test [1] of 170 nM.

B4: AMRA311-18 hIgG1 (antibody, V domains shown)
VH: EVQLVESGGGLVQPGGSLRLSCAASGFTISSSSIHWVRQAPGKGLEWVASIYSSSGSTSYADSVKGRFTISADTSKNTAYLQMNSLRAEDTAVYYCARVYSSRYWGWGVAFDYWGQGTLVTVSS
VL: B1 VL with M91W, Q92N, Y93W, S94A, G95D, W96Y, I98V
As for B4, the Kd with RAS-AMG510 came to 52 nM.

B5: IBA1-19 (antibody, V domains shown)
VH: EVQLVESGGGLVQPGGSLRLSCAASGFTFSYSSIHWVRQAPGKGLEWVASIYPSSGYTSYADSVKGRFTISADTSKNTAYLQMNSLRAEDTAVYYCARGWWYWMAWDYAMDYWGQGTLVTVSS
VL: B1 VL with M91S, Q92W, Y93M, G95D, W96S
In test [1], B5 registered a Kd of 0.52 nM.

B6: P2AMR-1 in the human IgG1 format (antibody, V domains shown)
VH: QVQLVQSEPEVKKPGSSVKLSCKASGGTFSTDAITWVRQAPGQGLEYMGGIIPLLDSVDYAQRFQGRVTVSADKSTGTAYMEVRSLGSEDTAKYYCAKWSSVDTGLDYWGQGTLVTVSS
VL: QSVLIQPRSVSGSPGQSVTISCTGTSSDVGGYNYVSWYQQHPGKAPKLMIYDVSKRPSGVPDRFSGSKSGNTASLTVSGLQAEDEADYYCGSYADTDTIVFGTGTKLTVL
As for B6, in test [2], the Kd is 0.2 nM.

B7: AMRA3-7D_CrossMab (bispecific antibody)
chain: EVQLLESGGGLVQPGGSLRLSCAASGFTFSTYAMNWVRQAPGKGLEWVSRIRSKYNNYATYYADSVKGRFTISRDDSKNTLYLQMNSLRAEDTAVYYCVRHGNFGNSYVSWFAYWGQGTLVTVSSASVAAPSVFIFPPSDEQLKSGTASVVCLLNNFYPREAKVQWKVDNALQSGNSQESVTEQDSKDSTYSLSSTLTLSKADYEKHKVYACEVTHQGLSSPVTKSFNRGEC
heavy 1: not shown
heavy 2: EVQLVESGGGLVQPGGSLRLSCAASGFTFSDYSIHWVRQAPGKGLEWVASISSSSGSTSYADSVKGRFTISADTSKNTAYLQMNSLRAEDTAVYYCARGGWYPAMDYWGQGTLVTVSSASTKGPSVFPLAPSSKSTSGGTAALGCLVEDYFPEPVTVSWNSGALTSGVHTFPAVLQSSGLYSLSSVVTVPSSSLGTQTYICNVNHKPSNTKVDEKVEPKSCDKTHTCPPCPAPEAAGGPSVFLFPPKPKDTLMISRTPEVTCVVVDVSHEDPEVKFNWYVDGVEVHNAKTKPREEQYNSTYRVVSVLTVLHQDWLNGKEYKCKVSNKALGAPIEKTISKAKGQPREPQVCTLPPSRDELTKNQVSLSCAVKGFYPSDIAVEWESNGQPENNYKTTPPVLDSDGSFFLVSKLTVDKSRWQQGNVFSCSVMHEALHNHYTQKSLSLSP
light: DIQMTQSPSSLSASVGDRVTITCRASQSVSSAVAWYQQKPGKAPKLLIYSASSLYSGVPSRFSGSRSGTDFTLTISSLQPEDFATYYCQQISYVKKLITFGQGTKVEIKRTVAAPSVFIFPPSDRKLKSGTASVVCLLNNFYPREAKVQWKVDNALQSGNSQESVTEQDSKDSTYSLSSTLTLSKADYEKHKVYACEVTHQGLSSPVTKSFNRGEC
For the molecule B7, the Kd with CD3 on Jurkat cells worked out at 200 nM.

B8: IBA1-13 (antibody, V domains shown)
VH: EVQLVESGGGLVQPGGSLRLSCAASGFTLSSSSIHWVRQAPGKGLEWVASIYSSYGYTYYADSVKGRFTISADTSKNTAYLQMNSLRAEDTAVYYCARYYYYWYGGMDYWGQGTLVTVSS
VL: DIQMTQSPSSLSASVGDRVTITCRASQSVSSAVAWYQQKPGKAPKLLIYSASSLYSGVPSRFSGSRSGTDFTLTISSLQPEDFATYYCQQGHDMNPVTFGQGTKVEIKR
Turning to B8, the Kd in test [1] was determined as 0.137 nM.

B9: IBA1-8 (antibody, V domains shown)
VH: EVQLVESGGGLVQPGGSLRLSCAASGFTISYSSIHWVRQAPGKGLEWVASIYPSYGSTSYADSVKGRFTISADTSKNTAYLQMNSLRAEDTAVYYCARWQGYYQPALDYWGQGTLVTVSS
VL: DIQMTQSPSSLSASVGDRVTITCRASQSVSSAVAWYQQKPGKAPKLLIYSASSLYSGVPSRFSGSRSGTDFTLTISSLQPEDFATYYCQQPYYPLITFGQGTKVEIKR
In test [1], B9 yielded a Kd of 62 nM.

B10: AMRA311-17 hIgG1 (antibody, V domains shown)
VH: EVQLVESGGGLVQPGGSLRLSCAASGFTISSSSIHWVRQAPGKGLEWVASISSYSGSTYYADSVKGRFTISADTSKNTAYLQMNSLRAEDTAVYYCARYPYGSHVYTGLDYWGQGTLVTVSS
VL: B9 VL with P91S, Y92S, Y93S, P94S
Take B10: the Kd with RAS-AMG510 was found to be 180 nM.

B11: AMRA311-16 hIgG1 (antibody, V domains shown)
VH: EVQLVESGGGLVQPGGSLRLSCAASGFTISSSSIHWVRQAPGKGLEWVAYISSYSGYTYYADSVKGRFTISADTSKNTAYLQMNSLRAEDTAVYYCARYWYGHYHSYFGLDYWGQGTLVTVSS
VL: B9 VL with P91S, Y92S, Y93S, P94S
Turning to B11, the Kd in the test with RAS-AMG510 came to 71 nM.
